Reference: US20230408517A1 (BIO TECHNE, published 2023)
Like-named read-outs stand apart in the source and are kept apart here.

What was measured:
Experiment in all cases: flow cytometry, blocking of binding to hACE-2 cells
[1] = target: T1, recombinant SARS-CoV-2 spike S1 RBD (R319-F541), C-terminal 6-His (SARS-CoV-2, UniProt P0DTC2 319-541)
[2] = target: IN v2 variant RBD (R319-F541 with L452R, T478K) (SARS-CoV-2, UniProt P0DTC2 319-541)
[3] = target: rSARS2 RBD aa319-541, N439K, C-His (SARS-CoV-2, UniProt P0DTC2 319-541)
[4] = target: BR P.1 variant RBD (R319-F541 with K417T, E484K, N501Y), C-terminal 6-His (SARS-CoV-2, UniProt P0DTC2 319-541)
[5] = target: rSARS2-B.1.1.7 S aa16-1211 4x aa mut., C-His (SARS-CoV-2, UniProt P0DTC2 16-1211)
[6] = target: rSARS2-B.1.617.2 S aa16-1211 10+4x aa mut., C-His (SARS-CoV-2, UniProt P0DTC2 16-1211)
[7] = target: rSARS2-B.1.1.7 S aa16-1211 2x aa mut., C-His (SARS-CoV-2, UniProt P0DTC2 16-1211)
[8] = target: T1, recombinant SARS-CoV-2 spike S1 RBD …; remark: listed apart in the source

Binder | percent blocking [1] [%] | percent blocking [2] [%] | percent blocking [3] [%] | percent blocking [4] [%] | percent blocking [5] [%] | percent blocking [6] [%] | percent blocking [7] [%] | percent blocking [8] [%]
1035423 (antibody, V domains shown) VH: EVKLEESGGGLVQPGGSMKLSCTASGFTFSDAWMDWVRQSPEKGLEWVAEIRNKANNHATYYAESVKGRFTISRDDSKSSVYLQMNSLRAEDTGIYYCILFITYAMDYWGQGTSVTVSS VL: DIVLTQSQKFMSTSVGDRVSITCKASQNVRTAVAWYQQKPGQSPKALIYLASNRHTGVPDRFTGSGSGTDFTLTISNVQSEDLADYFCLQHWNYPLTFGSGTKLELK | 94.1 | 81.4 | 34.6 | 22 | 75.9 | 89.5 | 71.1 | 94.1
1035433 (antibody, V domains shown) VH: QVQLQQSGPQLVRPGASVKISCKASGYSFTIYWMHWVQQRPGQGLEWIGMIDPSDSETRLNQKFKDKATLTVDKSSSTAYMQLSSPTSEDSAVYYCARRGDYNFDYWGQGTTLTVSS VL: DIVMTQAAPSVPATPGESVSISCRSSKSLLHSNGNTYLYWFLQRPGQSPQLLIFRMSNLASGVPDRFSGSGSGTAFTLRISRVEAEDVGVYYCMQHLEYPYTFGGGTKLEIK | 93.7 | 18.4 | 0.9 | 0 | 23.5 | 93.8 | 82 | 93.7
1035755 (antibody, V domains shown) VH: EVQLQQSGAELVRPGALVKLSCKASGFNIKDYYMHWVKQRPEQGLEWIGWIDPENGNSIYDPKFQGKASITADTSSNTAYLQLSSLTSEDTAVYYCATPSATSYFDYWGQGTTLTVSS VL: QIVLTQSPAIMSASPGEKVTISCSASSSVSYMYWYQQKPGSSPKPWIYRTSNLASGVPARFSGSGSGTSYSLTISSMEAEDAATYYCQQYHSYPYMYTFGGGTKLEIK | 94.1 | 0.9 | 25.2 | 14.9 | 35.8 | 0 | 12 | 94.1
1035414 (antibody, V domains shown) VH: QVQLKQSGAELVRPGASVKLSCKTSGYIFTSYWIHWVKQRSGQGLEWIARIYPGTGNTYYNEKFKGKATLTADKSSTTAYMQLSSLKSEDSAVYFCARGEDNLYYYAMDYWGQGTSVTVSS VL: NIVLTQSPASLAVSLGQRATISCRASESVDSYGTSFMHWYQQKPGQPPKLLIYLASNLESGVPASFSGSGSRTDFTLTIDPVEADDAATYYCQQNNEDPWTFGGGTKLEIK | 85.2 | 37.4 | 43 | 0.4 |  | 73.5 | 17.8 | 85.2
1035716 (antibody, V domains shown) VH: EVLLQQSGPELVKPGASVKIPCKASGYTFTDYNMDWVKQSHGKSLEWIGDINPNNGGTIYNQKFKGKATLTVDKSSSTAYMELRSLTSEDTAVYYCAREGYGNYFDYWGQGTTLTVSS VL: DILLTQSPAILSVSPGERVSFSCRASQSIGTSIHWYQQRTNGSPRLLIKYASESISGIPSRFSGSGSGTDYTLSINSVESEDIADYYCQQSYSWPTTFGAGTKLELK | 94.6 | 96.5 | 96.2 | 95 | 81.5 | 89.3 | 94.4 | 94.6
1035211 (antibody, V domains shown) VH: QVQLQQSGAELARPGASVKMSCKASGYTFTNYTMHWVKQRPGQGLEWIGYINPSSGYTNYNQKFKDKATLTADKSSSTAYMQLSSLTSEDSAVYYCARRNPLYAMDYWGQGTSVTVSS VL: DIKMTQSPSSMYASLGERVTITCKASQDINSYLNWFQQKPGKSPKTLIYRANRLVDGVPSRFSGSGSGQDYSLTISSLEFEDMGIYYCLQYDEFPYTFGGGTKLEIK | 98.7 | 1.7 | 18.1 | 0 | 72.4 | 0 | 76.3 | 98.7
1035752 (antibody, V domains shown) VH: QVQLQQPGAELVRPGASVKMSCKASGYTFTSHSIHWVKQTPGQGLEWIGAVYPGNGDTSYYQKFKGKATLTADKSSSTAYMHLSSLTSEDSAVYYCARDGYSDYYAMDCWGQGTSVTVSS VL: DIVMTQSQKFMSTSVGDRVSVTCKASQNVGTNVAWYQQKPGQSPKALIYSASYRYSGVPDRFTGSGSGTDFTLTINNVQSEDLAEYFCQQYNRYPWTFGGGTKLEIK | 94.5 | 0.8 | 53 | 77.2 | 74.4 | 0 | 81.4 | 94.5
